According to PMC10127515, “Biocatalytic Synthesis of Homochiral 2-Hydroxy-4-butyrolactone Derivatives by Tandem Aldol Addition and Carbonyl Reduction” (ACS Catalysis, 2023):

Columns and labels:
[1] = target: T1, KPREcoli (ketopantoate reductase from E. coli) (Escherichia coli, UniProt P0A9J4); assay: NADPH oxidation at […] nm, continuous; type: biochemical; conditions: NADPH 0.16 mM; 50 mM Tris-HCl pH 8.0; 30 °C; substrate inhibition
T1 construct: gene panE; recombinant wild type; tags and purification only in the supplement
T1 sequence (P0A9J4 1-303): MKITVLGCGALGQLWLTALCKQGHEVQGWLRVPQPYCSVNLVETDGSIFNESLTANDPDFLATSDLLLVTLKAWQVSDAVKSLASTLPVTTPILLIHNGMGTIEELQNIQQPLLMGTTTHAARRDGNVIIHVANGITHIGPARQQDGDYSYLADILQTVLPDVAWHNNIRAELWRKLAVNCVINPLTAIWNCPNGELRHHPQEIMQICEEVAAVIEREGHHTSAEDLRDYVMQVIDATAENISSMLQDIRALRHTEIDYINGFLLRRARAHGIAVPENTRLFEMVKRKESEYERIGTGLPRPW

purified protein [2] = substrate: CC[C@@H](CO)C(=O)C(=O)O; assay: purified protein; type: biochemical, Pseudomonas syringae group genomosp. 3; conditions: NADPH 0.16 mM, 50 mM Tris-HCl pH 8.0, 30 °C
purified protein [3] = substrate: C[C@H](CO)C(=O)C(=O)O; assay: purified protein; type: biochemical, Pseudomonas syringae group genomosp. 3; conditions: NADPH 0.16 mM, 50 mM Tris-HCl pH 8.0, 30 °C
purified protein [4] = substrate: C[C@@H](CO)C(=O)C(=O)O; assay: purified protein; type: biochemical, Pseudomonas syringae group genomosp. 3; conditions: NADPH 0.16 mM, 50 mM Tris-HCl pH 8.0, 30 °C
purified protein [5] = substrate: O=C(O)C(=O)C[C@@H](O)CO; assay: purified protein; type: biochemical, Pseudomonas syringae group genomosp. 3; conditions: NADPH 0.16 mM, 50 mM Tris-HCl pH 8.0, 30 °C
purified protein [6] = substrate: O=C(O)C(=O)CCO; assay: purified protein; type: biochemical, Pseudomonas syringae group genomosp. 3; conditions: NADPH 0.16 mM, 50 mM Tris-HCl pH 8.0, 30 °C
purified protein [7] = substrate: CC[C@@H](CO)C(=O)C(=O)O; assay: purified protein; type: biochemical, Escherichia coli; conditions: NADPH 0.16 mM, 50 mM Tris-HCl pH 8.0, 30 °C
purified protein [8] = substrate: C=CC[C@@H](CO)C(=O)C(=O)O; assay: purified protein; type: biochemical, Escherichia coli; conditions: NADPH 0.16 mM, 50 mM Tris-HCl pH 8.0, 30 °C
purified protein [9] = substrate: CC(C)[C@@H](CO)C(=O)C(=O)O; assay: purified protein; type: biochemical, Escherichia coli; conditions: NADPH 0.16 mM, 50 mM Tris-HCl pH 8.0, 30 °C
purified protein [10] = substrate: O=C(O)C(=O)C1(CO)CCC1; assay: purified protein; type: biochemical, Escherichia coli; conditions: NADPH 0.16 mM, 50 mM Tris-HCl pH 8.0, 30 °C
purified protein [11] = substrate: C[C@H](CO)C(=O)C(=O)O; assay: purified protein; type: biochemical, Escherichia coli; conditions: NADPH 0.16 mM, 50 mM Tris-HCl pH 8.0, 30 °C
purified protein [12] = substrate: C=CC[C@H](CO)C(=O)C(=O)O; assay: purified protein; type: biochemical, Escherichia coli; conditions: NADPH 0.16 mM, 50 mM Tris-HCl pH 8.0, 30 °C
purified protein [13] = substrate: CC(C)(CO)C(=O)C(=O)O; assay: purified protein; type: biochemical, Escherichia coli; conditions: NADPH 0.16 mM, 50 mM Tris-HCl pH 8.0, 30 °C
purified protein [14] = substrate: C[C@@H](CO)C(=O)C(=O)O; assay: purified protein; type: biochemical, Escherichia coli; conditions: NADPH 0.16 mM, 50 mM Tris-HCl pH 8.0, 30 °C
purified protein [15] = substrate: CC[C@H](CO)C(=O)C(=O)O; assay: purified protein; type: biochemical, Escherichia coli; conditions: NADPH 0.16 mM, 50 mM Tris-HCl pH 8.0, 30 °C
purified protein [16] = substrate: COCC[C@H](CO)C(=O)C(=O)O; assay: purified protein; type: biochemical, Escherichia coli; conditions: NADPH 0.16 mM, 50 mM Tris-HCl pH 8.0, 30 °C
purified protein [17] = substrate: O=C(O)C(=O)C1(CO)CCCC1; assay: purified protein; type: biochemical, Escherichia coli; conditions: NADPH 0.16 mM, 50 mM Tris-HCl pH 8.0, 30 °C
purified protein [18] = substrate: O=C(O)C(=O)CCO; assay: purified protein; type: biochemical, Escherichia coli; conditions: NADPH 0.16 mM, 50 mM Tris-HCl pH 8.0, 30 °C

**Q.** How did the “KPREcoli ^b / ksi^app” value [1] turn out when `O=C(O)C(=O)C1(CO)CCC1` [3k] was run?
**A.** 6.6 ± 1.5 mM

**Q.** For `CC(C)(CO)C(=O)C(=O)O` [3j, ketopantoate], which “KPREcoli ^b / ksi^app” value [1] is on record?
**A.** 3.9 ± 1.3 mM

**Q.** Which “KPREcoli ^b / ksi^app” value [1] does the source give for `O=C(O)C(=O)C1(CO)CCCC1` [3l] here?
**A.** 28 ± 4 mM

B1: DpkAPsyrin (Δ1-piperidine-2-carboxylate/Δ1-pyrroline-2-carboxylate reductase) (Pseudomonas syringae pv. tomato) (protein)
chain: MSASHADQPTQTVSYPQLIDLLRRIFVVHGTSPEVADVLAENCASAQRDGSHSHGIFRIPGYLSSLASGWVDGKAVPVVEDVGAAFVRVDACNGFAQPALAAARSLLIDKARSAGVAILAIRGSHHFAALWPDVEPFAEQGLVALSMVNSMTCVVPHGARQPLFGTNPIAFGAPRAGGEPIVFDLATSAIAHGDVQIAAREGRLLPAGMGVDRDGLPTQEPRAILDGGALLPFGGHKGSALSMMVELLAAGLTGGNFSFEFDWSKHPGAQTPWTGQLLIVIDPDKGAGQHFAQRSEELVRQLHGVGQERLPGDRRYLERARSMAHGIVIAQADLERLQELAGH
notes: recombinant wild type; tags and purification only in the supplement
**Q.** Which Km (purified protein [2]) does the source give for B1 here?
**A.** 14 ± 2 mM

**Q.** What about the kcat (purified protein [2]) of the same molecule?
**A.** 0.00383 ± 0.00017 s⁻¹

**Q.** What about the kcat/Km (purified protein [2]) of the same molecule?
**A.** 0.267 M⁻¹ s⁻¹

**Q.** And the Km (purified protein [3])?
**A.** 7.5 ± 1.9 mM

**Q.** And the kcat (purified protein [3])?
**A.** 4e-05 ± 3.3e-06 s⁻¹

**Q.** And the Km (purified protein [4])?
**A.** 19 ± 4 mM

**Q.** And the kcat (purified protein [4])?
**A.** 0.0183 ± 0.0017 s⁻¹

**Q.** And the kcat/Km (purified protein [4])?
**A.** 0.967 M⁻¹ s⁻¹

**Q.** And the Km (purified protein [5])?
**A.** 11 ± 1 mM

**Q.** What about the kcat (purified protein [5]) of the same molecule?
**A.** 0.05 ± 0.00033 s⁻¹

**Q.** What about the kcat/Km (purified protein [5]) of the same molecule?
**A.** 4.67 M⁻¹ s⁻¹

**Q.** And the Km (purified protein [6])?
**A.** 33 ± 7 mM

**Q.** And the kcat (purified protein [6])?
**A.** 0.0283 ± 0.0033 s⁻¹

**Q.** And the kcat/Km (purified protein [6])?
**A.** 0.867 M⁻¹ s⁻¹

B2: KPREcoli (ketopantoate reductase from E. coli) (Escherichia coli K-12) (protein)
chain: T1 sequence (P0A9J4 1-303)
notes: as for B1
**Q.** Which results are given for B2?
**A.** Km (purified protein [7]): 3.0 ± 0.5 mM; kcat (purified protein [7]): 15.4 ± 0.617 s⁻¹; kcat/Km (purified protein [7]): 5230 M⁻¹ s⁻¹; Km (purified protein [8]): 9.5 ± 1.7 mM; kcat (purified protein [8]): 1.48 ± 0.1 s⁻¹; kcat/Km (purified protein [8]): 157 M⁻¹ s⁻¹; Km (purified protein [9]): 13 ± 2 mM; kcat (purified protein [9]): 17.02 ± 1.15 s⁻¹; kcat/Km (purified protein [9]): 1280 M⁻¹ s⁻¹; Km (purified protein [10]): 1.5 ± 0.5 mM; kcat (purified protein [10]): 113.2 ± 17.03 s⁻¹; kcat/Km (purified protein [10]): 73800 M⁻¹ s⁻¹; Km (purified protein [11]): 4.8 ± 0.4 mM; kcat (purified protein [11]): 89.17 ± 2.3 s⁻¹; kcat/Km (purified protein [11]): 18500 M⁻¹ s⁻¹; Km (purified protein [12]): 9.5 ± 1.5 mM; kcat (purified protein [12]): 1.5 ± 0.083 s⁻¹; kcat/Km (purified protein [12]): 157 M⁻¹ s⁻¹; Km (purified protein [13]): 0.4 ± 0.2 mM; kcat (purified protein [13]): 74.28 ± 13.6 s⁻¹; kcat/Km (purified protein [13]): 179000 ± 76500 M⁻¹ s⁻¹; Km (purified protein [14]): 12.9 ± 1.4 mM; kcat (purified protein [14]): 5.8 ± 0.25 s⁻¹; kcat/Km (purified protein [14]): 450 M⁻¹ s⁻¹; Km (purified protein [15]): 7 ± 1 mM; kcat (purified protein [15]): 11.7 ± 0.567 s⁻¹; kcat/Km (purified protein [15]): 1770 M⁻¹ s⁻¹; Km (purified protein [16]): 18 ± 3 mM; kcat (purified protein [16]): 0.0983 ± 0.0083 s⁻¹; kcat/Km (purified protein [16]): 5.67 M⁻¹ s⁻¹; Km (purified protein [17]): 0.2 ± 0.1 mM; kcat (purified protein [17]): 19.43 ± 1.12 s⁻¹; kcat/Km (purified protein [17]): 92800 M⁻¹ s⁻¹; Km (purified protein [18]): 4.9 ± 1.2 mM; kcat (purified protein [18]): 0.118 ± 0.0083 s⁻¹; kcat/Km (purified protein [18]): 25 M⁻¹ s⁻¹
